Experimental data as given in US20160251409A1.

Biological target: GPIIb/IIIa receptor on platelets (human) (UniProt P08514)
Test: cell-based or functional assay

Platelet aggregation, 30 nM, SFLLRN 10 µM activated platelets: 60.7 % of control
Substance: Abciximab (ReoPro®) (Fab)
